Reference: patent US20090053230A1 (Genentech, published 2009)

Assays:
[1] = target: T1, full-length human OX40L expressed on CHO cells (human, UniProt P23510 1-183); experiment: Scatchard analysis, iodinated antibody on OX40L-expressing CHO cells
T1 construct: whole, on cells; also called CHO-OX40L cells; OX40L-expressing CHO cells
T1 sequence (looked up): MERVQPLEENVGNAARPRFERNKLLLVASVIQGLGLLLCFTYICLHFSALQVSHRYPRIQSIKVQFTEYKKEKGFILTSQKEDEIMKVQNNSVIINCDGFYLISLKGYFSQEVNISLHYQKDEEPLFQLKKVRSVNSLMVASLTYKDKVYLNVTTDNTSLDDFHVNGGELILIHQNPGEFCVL
Protocol: Scatchard binding experiments were performed to determine if anti-OX40L mAbs 8E12 and 13G5 compete with each other for binding similar or overlapping epitopes on CHO cells expressing human OX40L, and to determine the binding affinity of the antibodies. 50 ug of anti-OX40L murine monoclonal antibodies 8E12 and 13G5 were iodinated using a standard lactoperoxidase method. Antibodies 8E12 and 13G5 were serially diluted 1:4 in media buffer (Dubeccos F12:DMEM, 1% bovine serum albumin, 0.05% sodium azide and 25 mM Hepes buffer pH 7.2) starting at an initial concentration of 200 nM. Two sets of dilution series (50 uL) were performed in duplicate in a 96 microwell plate. Wells from each set of dilutions received 50 uL of either iodinated 8E12 or 13G5 (0.25 nM final concentration). The plate was mixed and then the entire mixture was transferred to a 96 well tissue culture plate containing 30,000 OX40L-expressing CHO cells per well which had been plated out the previous day. The plates were covered and incubated overnight at 4° C. The next day the wells (containing cells) were aspirated and washed twice with media buffer. 200 uL of 1N NaOH was added to each well to lyse the cells, shaken for 10 minute, and then transferred to a 96 well microtube. Each tube was counted in a Wallac gamma scintillation counter. […]

mouse OX40L = target: T2, mouse OX40L (mouse, UniProt P43488 51-198, limits assumed); experiment: ELISA, plates coated with mouse OX40L, goat anti-mouse Fc-HRP detection
T2 construct: Construct coated on the plate is not described
T2 sequence (looked up): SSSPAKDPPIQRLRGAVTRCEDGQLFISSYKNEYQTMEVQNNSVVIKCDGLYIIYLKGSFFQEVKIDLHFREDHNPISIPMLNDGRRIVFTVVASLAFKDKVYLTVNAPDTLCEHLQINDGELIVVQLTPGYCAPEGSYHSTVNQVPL
Protocol: (§1) To determine whether Mabs 8E12 and 13G5 bound mouse OX40L, ELISA plates were coated with mouse OX40L. Serial dilutions of 8E12 or 13G5 (0.004-4 ug/ml) were added. Goat anti-mouse Fc-HRP was used for detection. No binding was observed. In a different format, ELISA plates were coated with 8E12 or 13G5. Serial dilutions of mouse OX40L-Flag were added. Biotinylated anti-Flag followed by streptavidin-HRP was used for detection. No binding was observed.

[2] = target: T3, recombinant human OX40L-flag polypeptide (human OX40 ligand extracellular domain fused to the flag peptide) (human, UniProt P23510 51-183); experiment: SPR (BIAcore 3000), OX40L-Flag captured by immobilised anti-Flag, IgG as analyte
T3 construct: extracellular domain; Expressed from CHO cells (Genentech); also called human OX40L ECD-Flag polypeptide; human OX40L in solution; not shown: flag peptide
T3 sequence (looked up): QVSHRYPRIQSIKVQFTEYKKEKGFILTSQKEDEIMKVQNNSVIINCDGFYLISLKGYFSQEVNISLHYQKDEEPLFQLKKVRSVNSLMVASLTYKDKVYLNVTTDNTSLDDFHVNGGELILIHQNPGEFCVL
Protocol: Binding kinetics of mouse anti-OX40L antibodies to human OX40L were measured by surface plasmon resonance using Pharmacia BIAcore® 3000 (BIAcore AB, Uppsala, Sweden) at room temperature (Karlsson et al., 1994; Morton & Myszka, 1998). Anti-Flag antibody (anti-FlagM2, Sigma, St. Louis, Mo.) was immobilized to the sensor chip (CM5) through primary amine groups. A high flow rate was used in order to minimize mass transport effects. The carboxymethylated sensor chip surface matrix was activated by injecting 20 ul of a mixture of 0.025 M N-hydroxysuccinimide and 0.1 M N-ethyl-N′(dimethylaminopropyl) carbodiimide at 5 ul/min. 7 ul of 50 ug/ml anti-Flag in 10 mM sodium acetate, pH 4.5, were injected at 5 ul/min twice. After coupling, unoccupied sites on the chip were blocked by injecting 20 ul of 1M ethanolamine, pH 8.5. The running buffer was PBS containing 0.05% polysorbate 20. 5 ul of 4 ug/ml OX40L-Flag were injected at 30 ul/min to bind […] to the anti-Flag on the chip. For kinetic measurements, two-fold serial dilutions (6.2-50 nM) of mouse […] 8E12 (PUR 9333) and 13G5 (PUR 9306) in running buffer were injected over flow cell for 2 minutes at a flow rate of 30 ul/min and the bound anti-OX40L antibody was allow to dissociate for 20 minutes. […] Data were analyzed using a 1:1 binding model using global fitting. […]

[3] = target: T1, full-length human OX40L expressed on …; experiment: cell-based competition ELISA on CHO cells expressing full-length human OX40L; competitor human OX40-IgG, anti-Fc-HRP
Protocol: (§2) In other experiments, CHO cells expressing full-length human OX40L were grown in 50:50 F12/DMEM medium supplemented with 2 mM L-glutamine, 100 units/ml penicillin, 100 ug/ml streptomycin (supplemented medium), and 5% FBS (Gibco BRL Life Technologies, Gaithersburg, Md.) (growth medium) in a humidified 5% CO₂ incubator at 37° C. Cells were detached from culture plates using Accutase (ICN) and added to 96 well microwell plates at 300,000 cells/well. A mixture of human OX40-IgG and serial dilutions of antibodies in growth medium was added to the plates. After a one-hour incubation on ice, cells were washed by centrifuging the plates and removing the supernatant. Bound human OX40-IgG was detected using anti-Fc-HRP. […] In some experiments, human OX40-IgG-bio was used instead of human OX40-IgG. Bound human OX40-IgG-bio was detected using streptavidin-HRP. Plates were developed and read as described above.

[4] = target: T1, full-length human OX40L expressed on …; experiment: cell-based competition ELISA on CHO cells expressing full-length human OX40L; competitor human OX40-IgG-bio, streptavidin-HRP
Protocol: as §2

mouse OX40L-Flag = target: T4, mouse OX40L-Flag (mouse, UniProt P43488 51-198, limits assumed); experiment: ELISA, plates coated with antibody, serial dilutions of mouse OX40L-Flag, biotinylated anti-Flag and streptavidin-HRP detection
T4 construct: not shown: Flag tag
T4 sequence (looked up): T2 sequence (looked up)
Protocol: as §1

[5] = target: T3, recombinant human OX40L-flag …; experiment: competition ELISA, OX40L ECD-Flag captured by anti-Flag; competitor human OX40-IgG-bio; OX40L ECD-Flag captured on anti-Flag plate; OX40-IgG-bio as competitor
Protocol: Competition ELISA analysis was conducted as follows to examine binding of anti-OX40L Mabs 8E12 and 13G5 to OX40L in solution, and to examine binding to cell-surface expressed OX40L. In some experiments, maxiSorp 96-well microwell plates (Nunc, Roskilde, Denmark) were coated overnight at 4° C. with 2 ug/ml anti-FlagM2 antibody (Sigma) in 50 mM carbonate buffer, pH 9.6. Plates were washed with PBS containing 0.05% polysorbate 20 and blocked with 0.5% bovine serum albumin, 10 ppm Proclin 300 (Supelco, Bellefonte, Pa.) in PBS at room temperature for 1 h. Plates were washed and 0.5 ug/ml of human OX40L ECD-Flag polypeptide was added. After a one-hour incubation, plates were washed. A mixture of human OX40-IgG-bio and serial dilutions of antibodies in PBS containing 0.5% bovine serum albumin, 0.05% polysorbate 20, 10 ppm Proclin 300 was added. The plates were incubated for 2 h at room temperature and washed. Bound human OX40-IgG-bio was detected by adding streptavidin-HRP (Amdex, Copenhagen, Denmark) followed by 3,3′,5,5′-tetramethyl benzidine (Kirkegaard & Perry Laboratories, Gaithersburg, Md.) as the substrate. […] Absorbance was read at 450 nm on a Titertek stacker reader (ICN, Costa Mesa, Calif.). The titration curves were fit using a four parameter regression curve fitting program (KaleidaGraph, Synergy software, Reading, Pa.). […]

[6] = target: T1, full-length human OX40L expressed on …; experiment: competitive radioligand binding on OX40L-expressing CHO cells; antibody titrated against iodinated OX40-Fc (0.25 nM final), overnight at 4 C, gamma counting, 4-parameter fit
Protocol: Competitive binding experiments were performed to determine if anti-OX40L mAbs 8E12 and 13G5 competed with iodinated OX40-Fc (extracellular domain of OX40 receptor fused to Fc domain) for binding to OX40L expressed on CHO cells. 50 ug of […] was iodinated using a standard lactoperoxidase method. Antibodies 8E12 and 13G5 were serially diluted 1:4 in media buffer (Dubeccos F12:DMEM, 1% bovine serum albumin, 0.05% sodium azide and 25 mM Hepes buffer pH 7.2) starting at an initial concentration of 200 nM. Dilutions (50 uL) were performed in duplicate in a 96 microwell plate. Each well received 50 uL of iodinated […] (0.25 nM final concentration), was mixed and then the entire mixture was transferred to a 96 well tissue culture plate containing 30,000 OX40L-expressing CHO cells per well, which had been plated out the previous day. The plates were covered and incubated overnight at 4° C. The next day the wells (containing cells) were aspirated and washed twice with media buffer. 200 uL of 1N NaOH was added to each well to lyse the cells, shaken for 10 minute, and then transferred to a 96 well microtube. Each tube was counted in a Wallac gamma scintillation counter. The data was collected and plotted using Kaleidagraph. Curves were drawn using a 4-parameter fit.

[7] = target: T3, recombinant human OX40L-flag …; experiment: competition ELISA, coated human OX40-IgG as competitor, Flag-tagged OX40L (printed 'OX40-Flag') in solution with antibody dilutions; plate coated with OX40-IgG; Flag-tagged ligand in solution with antibody

Kd [1]: 0.92 nM | binding result (mouse OX40L): no binding (tested: 0.004-4 ug/ml) | koff [2]: < 5e-06 s⁻¹ | EC50 [3]: ~20 nM | EC50 [4]: ~11 nM | binding result (mouse OX40L-Flag): no binding | EC50 [5]: ~1.4 nM | IC50 (read off the curve) [6]: 2.5 to 3 nM | EC50 [7]: ~1.9 nM
B1: mouse anti-human OX40L monoclonal antibody 8E12 (antibody, V domains shown)
VH: QVQLQQPGAELVRPGASVKLSCKASGYTFTSYWLNWVKQRPGQGLEWIVMIDPSDSETHYNQVFKDKATLTVDKSSSTAYMQLSSLTSEDSAVYYCIRGRGNFYGGSHAMEYWGQGTLLTVSS
VL: DILMTQTPLSLPVSLGDQASISCRSSQSIVHGNGNTYLEWHLQKPGQSPKLLIYRVSNRFSGVPDRFSGSGSGTDFTLKINRVEAEDLGVYYCFQGSHVPYTFGGGTKVEIKR
notes: Tested as mouse IgG purified from hybridoma medium by Protein A; also called Mab 8E12; anti-OX40L mab 8E12
